Consider one molecule from PMC7489914, “Structural and functional studies of Arabidopsis thaliana legumain beta reveal isoform specific mechanisms of activation and substrate recognition” (The Journal of Biological Chemistry, 2020).

This assay addresses T1, AtLEGβ catalytic AEP domain (up to the autocatalytic cleavage site Asn333) (Arabidopsis thaliana, UniProt Q39044 22-333).
T1 construct: Arabidopsis thaliana legumain isoform β, catalytic (AEP) domain up to the autocatalytic cleavage site Asn333; Removal of the His6 tag (cleavage within the TEV site) was only observed under very acidic pH conditions; also called catalytic domain; AEPβ
T1 sequence (looked up): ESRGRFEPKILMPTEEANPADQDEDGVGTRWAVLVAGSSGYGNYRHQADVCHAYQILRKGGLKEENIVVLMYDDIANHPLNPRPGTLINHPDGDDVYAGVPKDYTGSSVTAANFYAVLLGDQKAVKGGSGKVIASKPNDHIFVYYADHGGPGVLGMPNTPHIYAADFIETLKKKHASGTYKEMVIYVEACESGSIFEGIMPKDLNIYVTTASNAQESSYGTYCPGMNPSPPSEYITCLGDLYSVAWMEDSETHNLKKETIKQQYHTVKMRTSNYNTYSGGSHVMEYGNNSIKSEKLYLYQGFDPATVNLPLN
Put plainly: SEC; pH 5.0-activated AtLEGβ on an S200 column, 20 mM citric acid pH 5.0, 100 mM NaCl; BSA as size standard. The settings on record: both partners purified.

B1: AtLEGβ AP-LSAM C-terminal fragment (Gln346–Ala486) (domain or fragment, Arabidopsis thaliana, UniProt Q39044 346-486, looked up)
chain: QRDADLLFLWHMYRTSEDGSRKKDDTLKELTETTRHRKHLDASVELIATILFGPTMNVLNLVREPGLPLVDDWECLKSMVRVFEEHCGSLTQYGMKHMRAFANVCNNGVSKELMEEASTAACGGYSEARYTVHPSILGYSA
notes: also called LSAM domain
Turning to B1, the binding result is on record as “binds”.
